Numbering of substitutions follows the chain as printed.
Legend:
[1] = target: T1, catalytic domain of human MMP-14 (cdMMP-14) (human, UniProt P50281 114-320); assay: FRET peptide inhibition assay; KI=IC50/(S/Km+1)
T1 construct: range 114-320; Produced active in E. coli periplasm; biotinylated for BLI/ELISA
Procedure: (§1) For inhibition tests, 1 μM Fabs were 2-fold serially diluted into protease specific assay buffer and incubated with 1-10 nM proteases for 30 min at room temperature. […] Inhibition percentages at given concentrations were calculated by comparing the initial reaction rates in the presence or absence of inhibitor. […] Vₘₐₓ and Kₘ at various Fab concentrations were measured to determine the inhibition type. FRET inhibition assays were also used for selectivity tests of isolated Fabs with the relevant proteases.

[2] = target: T1, catalytic domain of human MMP-14 …; assay: biolayer interferometry; biotinylated protease on streptavidin sensor, Fab in solution
Procedure: (§2) Binding kinetics of produced antibodies towards associated protease targets were analyzed by using biolayer interferometry (ForteBio). For Fabs, biotinylated proteases were immobilized on streptavidin biosensors, and Fab binding to the sensors in absence of protease was monitored as backgrounds.

[3] = target: T1, catalytic domain of human MMP-14 …; assay: enzyme inhibition assay with FRET peptide substrate (M-2350), Fab titrated on cdMMP-14 [panel 2A6]
Procedure: as §1

[4] = target: T1, catalytic domain of human MMP-14 …; assay: bio-layer interferometry (ForteBio), biotinylated protease on streptavidin biosensor, Fab in solution [panel 2A6]
Procedure: as §2

[5] = target: T2, Aspergillus fumigatus autophagic serine protease 2 (Alp2) (Aspergillus fumigatus, UniProt P87184 136-495); assay: enzyme inhibition assay with FRET peptide substrate (Mca-[..](Dnp)), Fab titrated on Alp2 [panel A4A2]
T2 construct: range 136-495; Produced active in E. coli periplasm; biotinylated for BLI
T2 sequence: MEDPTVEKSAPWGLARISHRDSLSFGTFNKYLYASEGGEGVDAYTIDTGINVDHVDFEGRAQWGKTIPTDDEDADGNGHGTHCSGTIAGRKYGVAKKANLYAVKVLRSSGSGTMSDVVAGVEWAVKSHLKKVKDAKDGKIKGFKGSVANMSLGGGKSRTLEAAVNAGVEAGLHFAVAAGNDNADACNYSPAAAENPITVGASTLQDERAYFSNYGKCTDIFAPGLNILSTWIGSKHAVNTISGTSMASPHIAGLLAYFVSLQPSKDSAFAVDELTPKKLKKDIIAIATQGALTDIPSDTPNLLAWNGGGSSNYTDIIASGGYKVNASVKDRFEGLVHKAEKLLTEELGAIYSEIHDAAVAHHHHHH
Procedure: as §1

[6] = target: T2, Aspergillus fumigatus autophagic serine …; assay: enzyme inhibition assay with FRET peptide substrate, Fab titrated on Alp2 [panel B]
Procedure: as §1

[7] = target: T1, catalytic domain of human MMP-14 …; assay: enzyme inhibition assay with FRET peptide substrate (M-2350), Fab titrated on cdMMP-14 [panel 2B10]
Procedure: as §1

[8] = target: T1, catalytic domain of human MMP-14 …; assay: bio-layer interferometry (ForteBio), biotinylated protease on streptavidin biosensor, Fab in solution [panel 2B10]
Procedure: as §2

[9] = target: T1, catalytic domain of human MMP-14 …; assay: enzyme inhibition assay with FRET peptide substrate (M-2350), Fab titrated on cdMMP-14 [panel 2D9]
Procedure: as §1

[10] = target: T1, catalytic domain of human MMP-14 …; assay: bio-layer interferometry (ForteBio), biotinylated protease on streptavidin biosensor, Fab in solution [panel 2D9]
Procedure: as §2

[11] = target: T3, human MMP-12 catalytic domain wild type (cdMMP-12 wt) (human, UniProt P39900 106-263); assay: BLItz bio-layer interferometry; printed as 'Affinity ... (nM)'
T3 construct: biotinylated for ELISA/BLI; also called wt cdMMP-12; cdMMP-12 wide-type
T3 sequence (P39900 other isoform, or with tags, fused parts or gaps limits assumed): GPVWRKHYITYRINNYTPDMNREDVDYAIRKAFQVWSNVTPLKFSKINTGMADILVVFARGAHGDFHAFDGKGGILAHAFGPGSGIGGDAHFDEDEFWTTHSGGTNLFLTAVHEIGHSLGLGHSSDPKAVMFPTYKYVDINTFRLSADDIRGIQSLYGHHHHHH

[12] = target: T4, human MMP-12 catalytic domain mutant D4 (cdMMP-12 D4) (human); assay: competitive ELISA: nTIMP-2 (0.8-200 µM) premixed with 500 nM Fab LG4 (the competitor displaced), added to immobilised cdMMP-12 D4, bound Fab detected with anti-Fab-HRP (OD450) [panel A, right]
T4 construct: PROSS-designed expression-optimised mutant; Cytoplasmically expressed in E. coli, purified on Ni-NTA; biotinylated for ELISA/BLI; also called cdMMP-12 mutant D4; modified D4
T4 sequence (chain, as listed by the source mutant limits assumed): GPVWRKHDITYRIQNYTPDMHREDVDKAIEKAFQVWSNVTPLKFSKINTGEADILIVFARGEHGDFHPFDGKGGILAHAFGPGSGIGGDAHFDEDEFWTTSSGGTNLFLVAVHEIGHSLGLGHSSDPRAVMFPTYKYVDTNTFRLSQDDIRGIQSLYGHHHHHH
Procedure: (§3) On streptavidin coated ELISA plates, 5 μg/mL biotinylated cdMMPs were immobilized and incubated with two-fold serially diluted purified Fabs. Bound Fabs were detected with anti-Fab-HRP (Sigma-Aldrich), and signals were developed by TMB substrate (Thermo Scientific) and measured using a microplate reader (BioTek). […] Bound Fabs were detected using anti-Fab-HRP.

[13] = target: T3, human MMP-12 catalytic domain wild type …; assay: competitive ELISA: nTIMP-2 (0.8-200 µM) premixed with 500 nM Fab LG4 (the competitor displaced), added to immobilised cdMMP-12 wt, bound Fab detected with anti-Fab-HRP (OD450) [panel B, right]
Procedure: as §3

[14] = target: T4, human MMP-12 catalytic domain mutant D4 …; assay: competitive ELISA: nTIMP-2 (0.8-200 µM) premixed with 500 nM Fab LH6 (the competitor displaced), added to immobilised cdMMP-12 D4, bound Fab detected with anti-Fab-HRP (OD450) [panel A, right]
Procedure: as §3

[15] = target: T3, human MMP-12 catalytic domain wild type …; assay: competitive ELISA: nTIMP-2 (0.8-200 µM) premixed with 500 nM Fab LH6 (the competitor displaced), added to immobilised cdMMP-12 wt, bound Fab detected with anti-Fab-HRP (OD450) [panel B, right]
Procedure: as §3

[16] = target: T4, human MMP-12 catalytic domain mutant D4 …; assay: competitive ELISA: nTIMP-2 (0.8-200 µM) premixed with 500 nM Fab LH11 (the competitor displaced), added to immobilised cdMMP-12 D4, bound Fab detected with anti-Fab-HRP (OD450) [panel A, right]
Procedure: as §3

[17] = target: T3, human MMP-12 catalytic domain wild type …; assay: competitive ELISA: nTIMP-2 (0.8-200 µM) premixed with 500 nM Fab LH11 (the competitor displaced), added to immobilised cdMMP-12 wt, bound Fab detected with anti-Fab-HRP (OD450) [panel B, right]
Procedure: as §3

B1: anti-MMP-14 Fab 2A6 (Fab, V domains shown)
VH: EVQLVESGGGLVQPGGSLRLSCAASGFNFSSSSIHWVRQAPGKGLEWVASISSSYGYTYYADSVKGRFTISADTSKNTAYLQMNSLRAEDTAVYYCARVVRMLPVRCIPRCIKTTLPLYGMDYWGQGTLVTVSS
VL: DIQMTQSPSSLSASVGDRVTITCRASQSVSSAVAWYQQKPGKAPKLLIYSASSLYSGVPSRFSGSRSGTDFTLTISSLQPEDFATYYCQQSSFPFTFGQGTKVEIKR
notes: Fab from a synthetic human Fab library, produced in E. coli periplasm; also called Clone 2A6
Ki [1]: 430 nM | Kd [2]: 130 nM | IC50 [3]: 480 nM | koff [4]: 0.003 s⁻¹ | kon [4]: 24000 M⁻¹ s⁻¹

B2: anti-Alp2 Fab A4A2 (Fab, V domains shown)
VH: EVQLVESGGGLVQPGGSLRLSCAASGFNLSSSSMHWVRQAPGKGLEWVASIYPSYSYTYYADSVKGRFTISADTSKNTAYLQMNSLRAEDTAVYYCARKTSDQYLLVGGSFFKLRDCCYVMDYWGQGTLVTVSS
VL: B1 VL with S91A, F93H, P94L, F95I
notes: Fab from a synthetic human Fab library, produced in E. coli periplasm; also called Clone A4A2
IC50 [5]: 250 nM

B3: anti-Alp2 Fab A4A1 (Fab, V domains shown)
VH: EVQLVESGGGLVQPGGSLRLSCAASGFNISSYYIHWVRQAPGKGLEWVASIYSYSSYTYYADSVKGRFTISADTSKNTAYLQMNSLRAGDTAVYYCARFGSWSYAIDYWGQGTLVTVSS
VL: B1 VL with S91A, F93H, P94L, F95I
notes: Fab from a synthetic human Fab library, produced in E. coli periplasm; also called Clone A4A1
IC50 [6]: 15 nM

B4: anti-MMP-14 Fab 2B10 (Fab, V domains shown)
VH: EVQLVESGGGLVQPGGSLRLSCAASGFNIYYSYMHWVRQAPGKGLEWVASIYPSYGYTYYADSVKGRFTISADTSKNTAYLQMNSLRAEDTAVYYCARQLFACWRQSILTPPLLSAMMMGYAMDYWGQGTLVTVSS
VL: DIQMTQSPSSLSASVGDRVTITCRASQSVSSAVAWYQQKPGKAPKLLIYSASSLYSGVPSRFSGSRSGTDFTLTISSLQPEDFATYYCQQYSVAYVWLITFGQGTKVEIKR
notes: Fab from a synthetic human Fab library, produced in E. coli periplasm; also called Clone 2B10
Ki [1]: 210 nM | Kd [2]: 46 nM | IC50 [7]: 240 nM | koff [8]: 0.0018 s⁻¹ | kon [8]: 40000 M⁻¹ s⁻¹

B5: anti-MMP-14 Fab 2D9 (Fab, V domains shown)
VH: EVQLVESGGGLVQPGGSLRLSCAASGFNISSSSMHWVRQAPGKGLEWVASIYPYYGYTYYADSVKGRFTISADTSKNTAYLQMNSLRAEDTAVYYCARGVTRFTNDASVGQVWAGAYGMDYWGQGTLVTVSS
VL: DIQMTQSPSSLSASVGDRVTITCRASQSVSSAVAWYQQKPGKAPKLLIYSASSLYSGVPSRFSGSRSGTDFTLTISSLQPEDFATYYCQQSSYSLITFGQGTKVEIKR
notes: Fab from a synthetic human Fab library, produced in E. coli periplasm; also called Clone 2D9
Ki [1]: 230 nM | Kd [2]: 260 nM | IC50 [9]: 260 nM | koff [10]: 0.0039 s⁻¹ | kon [10]: 15000 M⁻¹ s⁻¹

B6: N-terminal domain of tissue inhibitor of metalloproteinases 2 (nTIMP-2) (other, UniProt P16035 27-153, looked up)
chain: CSCSPVHPQQAFCNADVVIRAKAVSEKEVDSGNDIYGNPIKRIQYEIKQIKMFKGPEKDIEFIYTAPSSAVCGVSLDVGGKKEYLIAGKAEGDGKMHITLCDFIVPWDTLSTTQKKSLNHRYQMGCE
notes: domain: N-terminal domain; Periplasmically expressed and purified as reported elsewhere
Kd [11]: 150 nM | EC50 [12]: 42 µM | EC50 [13]: 44 µM | EC50 [14]: 23 µM | EC50 [15]: 32 µM | EC50 [16]: 18 µM | EC50 [17]: 26 µM

From patent publication US20200392251A1 (University of California, published 2020)
